The target in this experiment is T1, ectodomain of human CTLA-4 (aa 31-161) (human, UniProt P16410-1).
T1 construct: CTLA-4, human, ectodomain, residues 31-161 of UniProt P16410-1; Homodimer held by a disulfide bond (non-reducing SDS-PAGE and crystal structure); Cloned into pET-21a; also called extracellular domain of CTLA-4
As to the kind of experiment: SPR; BIAcore T100, CM5 chip, CTLA-4 immobilised (5 μg/ml), scFv flowed at 6.25-200 nM, room temperature, HBS-EP (150 mM NaCl, 10 mM HEPES pH 7.4, 0.005% Tween-20), 1:1 Langmuir model. The note with it: both partners purified.

T1 sequence (P16410 31-161): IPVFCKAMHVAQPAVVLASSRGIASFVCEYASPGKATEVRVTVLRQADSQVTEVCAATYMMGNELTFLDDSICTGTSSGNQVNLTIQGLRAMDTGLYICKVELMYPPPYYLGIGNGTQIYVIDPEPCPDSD

B1: scFv fragment of tremelimumab (scFv, V domains shown)
VH: QVQLVESGGGVVQPGRSLRLSCAASGFTFSSYGMHWVRQAPGKGLEWVAVIWYDGSNKYYADSVKGRFTISRDNSKNTLYLQMNSLRAEDTAVYYCARDPRGATLYYYYYGMDVWGQGTTVTVSS
VL: DIQMTQSPSSLSASVGDRVTITCRASQSINSYLDWYQQKPGKAPKLLIYAASSLQSGVPSRFSGSGSGTDFTLTISSLQPEDFATYYCQQYYSTPFTFGPGTKVEIK
notes: VL of tremelimumab (IGKV1-39 framework); the Fab of tremelimumab is in PDB 5GGV; linker, printed as GG(GGSGG)3GG; VH of tremelimumab (IGHV3-33 framework); Built as VL-GG(GGSGG)3GG-VH in pET21a; The parent antibody is an IgG2; only the scFv was made here; also called tremelimumab-scFv; CP-675,206
For orientation: Kd means the concentration at which binding is half-saturated. One may read the koff as the first-order rate constant of dissociation. Read a high koff as a short-lived complex. As usually defined, the kon is the rate constant with which the complex forms. Low readings indicate slow association, high ones fast association. Regarding B1, binding was put at a Kd of 5.89 nM, the koff came out at 0.0018 s⁻¹ and the association rate constant (kon) came out at 308000 M⁻¹ s⁻¹.

Values taken from article PMC5620161, “Remarkably similar CTLA-4 binding properties of therapeutic ipilimumab and tremelimumab antibodies” (Oncotarget, 2017).
